Source: patent US20240043504A1 (published 2024)

Columns and labels:
[1] = molecular target: full-length SARS-CoV-2 spike protein (amino acids M1-T1273 of accession number YP_009724390.1) on Ju (SARS-CoV-2, UniProt P0DTC2 14-1273); experiment: cell-based or functional assay
[2] = molecular target: Human SARS Coronavirus Spike S1 Subunit Protein (His Tag) (Sino 40150-V08B1) (Human SARS Coronavirus, UniProt P59594 14-667); experiment: Luminex bead binding, supernatant
[3] = molecular target: T1, MERS-CoV (NCoV/Novel coronavirus) Spike Protein fragment (RBD, aa 367-606, His Tag) (Sino 40071-V08B1) (MERS-CoV, UniProt K9N5Q8 367-606); experiment: Luminex, supernatant
T1 sequence: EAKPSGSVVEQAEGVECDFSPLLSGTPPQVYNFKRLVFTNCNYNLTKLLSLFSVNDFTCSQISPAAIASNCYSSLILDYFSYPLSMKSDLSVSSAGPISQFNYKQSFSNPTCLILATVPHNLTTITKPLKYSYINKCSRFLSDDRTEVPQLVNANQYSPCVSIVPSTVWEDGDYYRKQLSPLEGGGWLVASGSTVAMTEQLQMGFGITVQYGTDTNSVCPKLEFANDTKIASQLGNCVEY

[4] = molecular target: T2, MERS-CoV (NCoV/Novel coronavirus) Spike Protein S1 Protein (aa 1-725, His Tag) (Sino 40069-V08B1) (MERS-CoV, UniProt K9N5Q8 18-725); experiment: Luminex, supernatant
T2 sequence: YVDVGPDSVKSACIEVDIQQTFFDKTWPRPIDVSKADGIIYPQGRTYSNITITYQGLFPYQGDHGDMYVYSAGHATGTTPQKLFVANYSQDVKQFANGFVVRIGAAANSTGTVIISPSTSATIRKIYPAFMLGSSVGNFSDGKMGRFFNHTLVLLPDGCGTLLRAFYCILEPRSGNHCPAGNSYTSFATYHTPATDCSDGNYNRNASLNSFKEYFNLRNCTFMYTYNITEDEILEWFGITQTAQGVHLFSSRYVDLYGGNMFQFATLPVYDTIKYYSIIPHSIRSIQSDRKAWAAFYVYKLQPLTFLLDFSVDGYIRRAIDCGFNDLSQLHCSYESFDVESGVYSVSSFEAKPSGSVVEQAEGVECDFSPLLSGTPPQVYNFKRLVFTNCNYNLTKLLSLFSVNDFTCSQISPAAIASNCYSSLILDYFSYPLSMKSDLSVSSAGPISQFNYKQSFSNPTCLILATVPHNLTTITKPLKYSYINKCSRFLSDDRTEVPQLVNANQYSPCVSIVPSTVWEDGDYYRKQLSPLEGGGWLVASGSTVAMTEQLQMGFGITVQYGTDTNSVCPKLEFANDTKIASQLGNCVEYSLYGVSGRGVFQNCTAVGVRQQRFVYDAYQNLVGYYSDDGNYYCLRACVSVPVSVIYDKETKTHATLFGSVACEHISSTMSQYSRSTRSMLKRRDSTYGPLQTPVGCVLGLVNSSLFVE

[5] = molecular target: SARS-CoV-2 Spike Protein (RBD)(R319-F541).mFc (SARS-CoV-2); experiment: Luminex, supernatant
[6] = molecular target: SARS-CoV-2 Spike Protein (RBD)(R319-F541).hFc (SARS-CoV-2); experiment: Luminex, supernatant
[7] = molecular target: T3, MERS-CoV Spike Protein (ECD, aa 1-1297, His Tag) (Sino 40069-[change]) (MERS-CoV, UniProt K9N5Q8 18-1297); experiment: Luminex, supernatant
T3 sequence: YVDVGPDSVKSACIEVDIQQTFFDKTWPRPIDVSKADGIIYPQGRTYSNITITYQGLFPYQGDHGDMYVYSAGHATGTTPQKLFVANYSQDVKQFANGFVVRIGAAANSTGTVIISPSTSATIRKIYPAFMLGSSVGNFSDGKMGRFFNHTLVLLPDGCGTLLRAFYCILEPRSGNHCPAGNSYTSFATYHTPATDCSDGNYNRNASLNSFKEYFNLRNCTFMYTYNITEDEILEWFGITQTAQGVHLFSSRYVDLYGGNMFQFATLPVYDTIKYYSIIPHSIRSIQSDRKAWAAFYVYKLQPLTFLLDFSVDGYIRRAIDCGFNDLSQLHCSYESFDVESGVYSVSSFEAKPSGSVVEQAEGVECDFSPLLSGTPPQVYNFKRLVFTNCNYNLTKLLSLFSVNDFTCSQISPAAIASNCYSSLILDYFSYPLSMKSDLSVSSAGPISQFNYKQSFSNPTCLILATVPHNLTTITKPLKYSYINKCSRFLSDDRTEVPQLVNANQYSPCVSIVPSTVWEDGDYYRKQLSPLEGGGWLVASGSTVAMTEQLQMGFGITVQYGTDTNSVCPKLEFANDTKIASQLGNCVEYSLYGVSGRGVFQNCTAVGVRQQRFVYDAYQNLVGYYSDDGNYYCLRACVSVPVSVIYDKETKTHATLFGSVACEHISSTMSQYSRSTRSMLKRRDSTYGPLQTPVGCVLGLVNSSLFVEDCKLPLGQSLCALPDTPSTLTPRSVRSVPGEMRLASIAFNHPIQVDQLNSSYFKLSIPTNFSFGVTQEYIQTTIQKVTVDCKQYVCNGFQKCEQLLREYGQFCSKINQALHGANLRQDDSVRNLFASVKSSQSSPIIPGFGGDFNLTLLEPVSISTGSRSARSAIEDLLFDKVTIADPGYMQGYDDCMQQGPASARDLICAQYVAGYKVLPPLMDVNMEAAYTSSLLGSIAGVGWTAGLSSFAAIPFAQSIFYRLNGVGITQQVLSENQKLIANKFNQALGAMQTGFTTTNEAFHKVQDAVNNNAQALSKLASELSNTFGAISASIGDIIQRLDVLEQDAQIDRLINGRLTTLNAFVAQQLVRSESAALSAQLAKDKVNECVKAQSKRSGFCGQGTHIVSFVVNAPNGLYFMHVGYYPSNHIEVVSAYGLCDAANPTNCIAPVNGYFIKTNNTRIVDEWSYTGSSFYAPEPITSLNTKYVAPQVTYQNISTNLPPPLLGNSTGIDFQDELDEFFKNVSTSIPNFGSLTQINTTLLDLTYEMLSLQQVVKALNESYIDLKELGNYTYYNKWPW

[8] = molecular target: Human SARS Coronavirus Spike S1 Subunit Protein (His Tag) (Sino 40150-V08B1) (Human SARS Coronavirus, UniProt P59594 14-667); experiment: Luminex, supernatant
[9] = molecular target: T4, MERS-CoV Spike Protein S2 (aa 726-1296, His Tag) (Sino 40070-[change]) (MERS-CoV, UniProt K9N5Q8 726-1296); experiment: Luminex, supernatant
T4 sequence: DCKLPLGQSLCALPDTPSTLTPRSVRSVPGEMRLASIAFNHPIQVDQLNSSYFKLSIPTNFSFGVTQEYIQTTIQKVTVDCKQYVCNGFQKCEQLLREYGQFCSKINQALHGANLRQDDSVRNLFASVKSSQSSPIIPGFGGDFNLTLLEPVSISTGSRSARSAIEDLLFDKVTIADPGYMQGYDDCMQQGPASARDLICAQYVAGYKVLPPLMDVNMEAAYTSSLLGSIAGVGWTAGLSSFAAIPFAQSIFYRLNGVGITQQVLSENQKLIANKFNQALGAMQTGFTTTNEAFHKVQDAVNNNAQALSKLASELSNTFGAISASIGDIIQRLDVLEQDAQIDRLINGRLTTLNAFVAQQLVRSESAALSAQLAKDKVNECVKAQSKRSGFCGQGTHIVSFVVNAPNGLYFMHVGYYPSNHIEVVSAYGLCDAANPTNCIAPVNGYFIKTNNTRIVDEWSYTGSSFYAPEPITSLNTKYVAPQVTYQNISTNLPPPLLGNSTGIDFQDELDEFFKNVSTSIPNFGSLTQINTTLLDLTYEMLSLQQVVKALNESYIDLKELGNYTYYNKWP

B1: mAb10933 (antibody, V domains shown)
VH: QVQLVESGGGLVKPGGSLRLSCAASGFTFSDYYMSWIRQAPGKGLEWVSYITYSGSTIYYADSVKGRFTISRDNAKSSLYLQMNSLRAEDTAVYYCARDRGTTMVPFDYWGQGTLVTVSS
VL: DIQMTQSPSSLSASVGDRVTITCQASQDITNYLNWYQQKPGKAPKLLIYAASNLETGVPSRFSGSGSGTDFTFTISGLQPEDIATYYCQQYDNLPLTFGGGTKVEIKR
ADCP EC50 [M], Jurkat/hCD20/SARS-CoV-2 Spike cells [1]: 5.79e-12 M | ADCP Max (% ADCP), Jurkat/hCD20/SARS-CoV-2 Spike cells [1]: 53.4%

B2: mAb10989 (antibody, V domains shown)
VH: QVQLVQSGAEVKKPGASVKVSCKASGYIFTGYYMHWVRQAPGQGLEWMGWINPNSGGANYAQKFQGRVTLTRDTSITTVYMELSRLRFDDTAVYYCARGSRYDWNQNNWFDPWGQGTLVTVSS
VL: QSALTQPASVSGSPGQSITISCTGTSSDVGTYNYVSWYQQHPGKAPKLMIFDVSNRPSGVSDRFSGSKSGNTASLTISGLQAEDEADYYCSSFTTSSTVVFGGGTKLTVLG
Binding signal (MFI) [2]: 21 MFI

B3: mAb10965 (antibody, V domains shown)
VH: EVQLVESGGGLIQPGGSLRLSCAASVFTVSYNYMSWVRQAPGKGLEWVSVIYSGGSTYYADSVKGRFTISRDNSKNTLYLQMNSLRAEDTAVYYCARALPGWGGSFEYFDYWGQGTLVTVSS
VL: not shown
Binding signal (MFI) [2]: 16 MFI

B4: mAb10966 (antibody, V domains shown)
VH: EVQLVESGGGLVQPGGSLRLSCAASGLTVSSNYMSWVRQAPGKGLEWVSVIYSGGSTFYADSVKGRFTISRDNSKNTLYLQMNSLRPEDTAVYYCAREGRIAATGYGMDVWGQGTTVTVSS
VL: not shown
Binding signal (MFI) [2]: 20 MFI

B5: mAb10967 (antibody, V domains shown)
VH: EVQLVESGGGLVQPGGSLRLSCAASGFTVSSNYMSWVRQAPGKGLEWVSVIYPGGSTFYADSVKGRFTISRDNSKNTLYLQMNSLRAEDTAVYYCARDQRDFAWGQGTLVTVSS
VL: DIQMTQSPSSLSASVGDRVTITCQASQDISNYLNWYQQKPGKAPKLLIYDASNLETGVPSRFSGSGSGTDFTFTISGLQPEDIATYYCQQYDNLPPTFGQGTRLEIKR
Binding signal (MFI) [2]: 21 MFI

B6: mAb10954 (antibody, V domains shown)
VH: EVQLVESGGGLVQPGGSLRLSCAASGITVSSNYMSWVRQAPGKGLEWVSLIYSGGSTYYADSVKGRFTISRDNSKNTLYLQMNSLRVEDTAVYYCARDHGMAAAGYNYWGQGTLVTVSS
VL: DIQMTQSPSSLSASVGDRVTITCQASQDINKYLNWYQQKPGKAPKLLIYDASNLETGVPSRFSGSGSGTDFTFTINSLQPEDFATYFCQQYDNLPPAFGQGTKVEIKR
Binding signal (MFI) [2]: 15 MFI

B7: mAb10956 (antibody, V domains shown)
VH: EVQLVESGGGLVQPGGSLRLSCAASGLTVSSNYMSWVRQAPGKGLEWVSVIYSGGSTFYADSVKGRFTISRDNSKNTLYLQMNSLRAEDTAVYYCARDLIKYGMDVWGQGTTVTVSS
VL: not shown
Binding signal (MFI) [2]: 16 MFI

B8: mAb10957 (antibody, V domains shown)
VH: EVQLVESGGGLVQPGGSLRLSCAASGVTVSSNYMSWVRQAPGKGLEWVSVIYSGGSTFYADSVKGRFTISRDNSKNTLFLQMNSLRIEDTAVYYCARDLGPYGMDVWGQGTTVTVSS
VL: DIQLTQSPSFLSASVGDRVTITCRASQGISSYLAWYQQKPGKAPKLLIYAASTLQSGVPSRFSGSGSGTQFILTISSLQPEDFATYYCQQLNSYPGFTFGPGTKVDIKR
Binding signal (MFI) [2]: 16 MFI

B9: mAb10938 (antibody, V domains shown)
VH: EVQLVESGGGLVQPGGSLRLSCAVSGFTVSSNYMSWVRQAPGKGLEWVSLIYSGGSTFYADSVKGRFTISRHNSKNTLYLQMNSLRAEDTAVYYCAREGGYSYDYNYWGQGTLVTVSS
VL: DIQMTQSPSSLSASVGDRVTITCQASQDIRNYLNWYQQKPGKAPKLLIYDASNLETGVPSRFSGIGSGTDFTFTISSLQPEDIATYYCQQYDNLPITFGQGTRLEIKR
MFI [3]: 25 MFI | MFI [4]: 20 MFI | MFI [5]: 30500 MFI | MFI [6]: 29600 MFI | MFI [7]: 16 MFI | MFI [8]: 19 MFI | MFI [9]: 19 MFI

B10: mAb10984 (antibody, V domains shown)
VH: EVQLVESGGGLVQPGGSLRLSCAASGLTVNRNYMSWVRQAPGKGLEWVSLIYSGGSTYYADSVKGRFTISRDNSKNTLYLQMNSLRLEDTAVYYCARGELGIPYGMDVWGQGTTVTVSS
VL: QSVLTQPPSVSAAPGQKVTISCSGSSSNIGNNYVSWYQQLPGTAPKLLIYDNNKRPSGIPDRFSGSKSGTSATLGITGLQTGDEADYYCGTWDSSLSAGVFGGGTKLTVLG
MFI [3]: 29 MFI | MFI [4]: 20 MFI | MFI [5]: 28400 MFI | MFI [6]: 28400 MFI | MFI [7]: 21 MFI | MFI [8]: 22 MFI | MFI [9]: 25 MFI
